Experiments:
[1] = substrate: NC(=O)NCCC[C@H](N)C(=O)O; test: L-Orn formation by LC-QQQ-MS, Michaelis-Menten; assay type: biochemical, Mus musculus; details: 5-500 μM L-Cit, PBS pH 7.4, 1 μM ZnSO4, 37°C
[2] = substrate: NC(=O)NCCC[C@H](N)C(=O)O; test: L-Orn formation by LC-QQQ-MS, Michaelis-Menten; assay type: biochemical, Homo sapiens; details: 5-500 μM L-Cit, PBS pH 7.4, 1 μM ZnSO4, 37°C

Row | Protein | Km [1] | kcat [1] | Km [2] | kcat [2]
1 | mLACC1 (Mus musculus) (protein, codon-optimized synthetic cDNA in pMAL-C5x (MBP fusion), E. coli BL21(DE3), amylose resin; tag cleavage not described) MAEAVLIDLSGLQLNAQKNCHETLLETLDGIHYHHAPKAKFLCIICCRNASKEKDGEYGLCELEAGNGFSRLAGKFETVSHPCLAASLYTIKQKIDEENLSCIKVIVPEHRKLLMKAYVGQLFTEVYEFEFEDLQGAWRDSLLKPSTGINVTTTQELEDIQHEIETYLRSLPALKGDLTIVTSPLIPDNFLHGFTTRTGGISSVPTLSSLNLFSSSKRRDPKVVVQENVRRLANAAGFNAEKFYRIKTDHASEVWVMGKKEPESYDGIVTNQRGVTITALGADCIPIVFADPVKKACGVAHSGWKGTLLGVAMATVNAMIAEYGCDVEDIIVVLGPSVGSCCFTLPKESAVSFHSLHPSCVRHFDSPRPYVDIRKATRILLERGGILPQNIQDQKEDLDLCTSCHPEKFFSHVRDGLNFGTQIGFISLRE | 117.2 µM | 0.0055 s⁻¹ |  | 
2 | hLACC1 (Homo sapiens) (protein, codon-optimized synthetic cDNA in pMAL-C5x (MBP fusion), E. coli BL21(DE3), amylose resin; tag cleavage not described) MAEAVLIDLFGLKLNSQKNCHQTLLKTLNAVQYHHAAKAKFLCIMCCSNISYERDGEQDNCEIETSNGLSALLEEFEIVSCPSMAATLYTIKQKIDEKNLSSIKVIVPRHRKTLMKAFIDQLFTDVYNFEFEDLQVTFRGGLFKQSIEINVITAQELRGIQNEIETFLRSLPALRGKLTIITSSLIPDIFIHGFTTRTGGISYIPTLSSFNLFSSSKRRDPKVVVQENLRRLANAAGFNVEKFYRIKTHHSNDIWIMGRKEPDSYDGITTNQRGVTIAALGADCIPIVFADPVKKACGVAHAGWKGTLLGVAMATVNAMIAEYGCSLEDIVVVLGPSVGPCCFTLPRESAEAFHNLHPACVQLFDSPNPCIDIRKATRILLEQGGILPQNIQDQNQDLNLCTSCHPDKFFSHVRDGLNFGTQIGFISIKE |  |  | 163.7 µM | 0.00567 s⁻¹
3 | hLACC1 (Homo sapiens; I254V) (protein, codon-optimized synthetic cDNA in pMAL-C5x (MBP fusion), E. coli BL21(DE3), amylose resin; tag cleavage not described) MAEAVLIDLFGLKLNSQKNCHQTLLKTLNAVQYHHAAKAKFLCIMCCSNISYERDGEQDNCEIETSNGLSALLEEFEIVSCPSMAATLYTIKQKIDEKNLSSIKVIVPRHRKTLMKAFIDQLFTDVYNFEFEDLQVTFRGGLFKQSIEINVITAQELRGIQNEIETFLRSLPALRGKLTIITSSLIPDIFIHGFTTRTGGISYIPTLSSFNLFSSSKRRDPKVVVQENLRRLANAAGFNVEKFYRIKTHHSNDVWIMGRKEPDSYDGITTNQRGVTIAALGADCIPIVFADPVKKACGVAHAGWKGTLLGVAMATVNAMIAEYGCSLEDIVVVLGPSVGPCCFTLPRESAEAFHNLHPACVQLFDSPNPCIDIRKATRILLEQGGILPQNIQDQNQDLNLCTSCHPDKFFSHVRDGLNFGTQIGFISIKE |  |  | 181.3 µM | 0.00433 s⁻¹
4 | hLACC1 (Homo sapiens; C284R) (protein, codon-optimized synthetic cDNA in pMAL-C5x (MBP fusion), E. coli BL21(DE3), amylose resin; tag cleavage not described) MAEAVLIDLFGLKLNSQKNCHQTLLKTLNAVQYHHAAKAKFLCIMCCSNISYERDGEQDNCEIETSNGLSALLEEFEIVSCPSMAATLYTIKQKIDEKNLSSIKVIVPRHRKTLMKAFIDQLFTDVYNFEFEDLQVTFRGGLFKQSIEINVITAQELRGIQNEIETFLRSLPALRGKLTIITSSLIPDIFIHGFTTRTGGISYIPTLSSFNLFSSSKRRDPKVVVQENLRRLANAAGFNVEKFYRIKTHHSNDIWIMGRKEPDSYDGITTNQRGVTIAALGADRIPIVFADPVKKACGVAHAGWKGTLLGVAMATVNAMIAEYGCSLEDIVVVLGPSVGPCCFTLPRESAEAFHNLHPACVQLFDSPNPCIDIRKATRILLEQGGILPQNIQDQNQDLNLCTSCHPDKFFSHVRDGLNFGTQIGFISIKE |  |  | 155.8 µM | 0.00275 s⁻¹
5 | hLACC1 (Homo sapiens; K38E) (protein, codon-optimized synthetic cDNA in pMAL-C5x (MBP fusion), E. coli BL21(DE3), amylose resin; tag cleavage not described) MAEAVLIDLFGLKLNSQKNCHQTLLKTLNAVQYHHAAEAKFLCIMCCSNISYERDGEQDNCEIETSNGLSALLEEFEIVSCPSMAATLYTIKQKIDEKNLSSIKVIVPRHRKTLMKAFIDQLFTDVYNFEFEDLQVTFRGGLFKQSIEINVITAQELRGIQNEIETFLRSLPALRGKLTIITSSLIPDIFIHGFTTRTGGISYIPTLSSFNLFSSSKRRDPKVVVQENLRRLANAAGFNVEKFYRIKTHHSNDIWIMGRKEPDSYDGITTNQRGVTIAALGADCIPIVFADPVKKACGVAHAGWKGTLLGVAMATVNAMIAEYGCSLEDIVVVLGPSVGPCCFTLPRESAEAFHNLHPACVQLFDSPNPCIDIRKATRILLEQGGILPQNIQDQNQDLNLCTSCHPDKFFSHVRDGLNFGTQIGFISIKE |  |  | 81.58 µM | 0.0051 s⁻¹

Source: PMC9813773, “LACC1 bridges NOS2 and polyamine metabolism in inflammatory macrophages” (Nature, 2022)
